The target in series [1] is T1, mpCAR (Mycolicibacterium phlei, UniProt A0A5N5VEC4).
T1 construct: gene car; expressed in E. coli BL21(DE3) with B. subtilis Sfp (phosphopantetheinylated); around 130 kDa
The series can be described thus: NADPH oxidation at […] nm, product inhibition kinetics. In kind it is biochemical. To be noted: pH 7.5, 30 °C, 10 mM MgCl2.

The test system of series [2] is COc1ccc(C(=O)O)cc1. As to the kind of experiment: purified protein. To be noted: 1 mM ATP, 0.25 mM NADPH, 10 mM MgCl2, 100 mM Tris-HCl pH 7.5, 30 °C.
Series [3] has as its system O=C(O)/C=C/c1ccccc1. As to the kind of experiment: purified protein. In kind it is biochemical, Nocardia iowensis. To be noted: 1 mM ATP, […] NADPH, 10 mM MgCl2, 100 mM Tris-HCl pH 7.5, 30 °C.
Series [4] has as its system CCCCCCCCCCCC(=O)O. The series can be described thus: purified protein. In kind it is biochemical, Nocardia iowensis. To be noted: 1 mM ATP, […] NADPH, 10 mM MgCl2, 100 mM Tris-HCl pH 7.5, 30 °C.
Series [5] relates to CCCCCCCCCCCC(=O)O. As to the kind of experiment: purified protein. To be noted: 1 mM ATP, […] NADPH, 10 mM MgCl2, 100 mM Tris-HCl pH 7.5, 30 °C.
Series [6] relates to CCCCCCCCCCCCCCCCCC(=O)O. As to the kind of experiment: purified protein. The note with it: 1 mM ATP, […] NADPH, 10 mM MgCl2, 100 mM Tris-HCl pH 7.5, 30 °C.
In series [7] the test system is O=C(O)C#Cc1ccccc1. As to the kind of experiment: purified protein. In kind it is biochemical, Tsukamurella paurometabola. The note with it: 1 mM ATP, […] NADPH, 10 mM MgCl2, 100 mM Tris-HCl pH 7.5, 30 °C.
The subject of series [8] is CCCCCCCCCCCC(=O)O. As to the kind of experiment: purified protein. The note with it: 1 mM ATP, […] NADPH, 10 mM MgCl2, 100 mM Tris-HCl pH 7.5, 30 °C. In kind it is biochemical, Tsukamurella paurometabola.
Series [9] relates to CCCCCCCCCCCCCCCCCC(=O)O. As to the kind of experiment: purified protein. Format: biochemical, Tsukamurella paurometabola. To be noted: 1 mM ATP, […] NADPH, 10 mM MgCl2, 100 mM Tris-HCl pH 7.5, 30 °C.
In series [10] the test system is CCCCCCCC(=O)O. As to the kind of experiment: purified protein. In kind it is biochemical, Tsukamurella paurometabola. The note with it: 1 mM ATP, […] NADPH, 10 mM MgCl2, 100 mM Tris-HCl pH 7.5, 30 °C.
Substrate in series [11]: CCCCCCCC(=O)O
As to the kind of experiment: purified protein. To be noted: 1 mM ATP, 0.25 mM NADPH, 10 mM MgCl2, 100 mM Tris-HCl pH 7.5, 30 °C.

Substrate in series [12]: Cc1ccc(C(=O)O)cc1
As to the kind of experiment: purified protein. The note with it: 1 mM ATP, 0.25 mM NADPH, 10 mM MgCl2, 100 mM Tris-HCl pH 7.5, 30 °C.

Substrate in series [13]: O=C(O)/C=C/c1ccccc1
The series can be described thus: purified protein. To be noted: 1 mM ATP, 0.25 mM NADPH, 10 mM MgCl2, 100 mM Tris-HCl pH 7.5, 30 °C.

Substrate in series [14]: CCCCCCCCCCCC(=O)O
The series can be described thus: purified protein. Format: biochemical, Mycolicibacterium smegmatis. The note with it: 1 mM ATP, […] NADPH, 10 mM MgCl2, 100 mM Tris-HCl pH 7.5, 30 °C.

As usually defined, the Ki is the equilibrium dissociation constant of an inhibitor or competing ligand from its target. Read a high Ki as weaker binding. In series [1] (competitive with ATP), `Nc1ncnc2c1ncn2[C@@H]1O[C@H](COP(=O)(O)O)[C@@H](O)[C@H]1O` [AMP] yielded a Ki of 8200 ± 900 µM.

In turn, `NC(=O)c1ccc[n+]([C@@H]2O[C@H](COP(=O)(O)OP(=O)(O)OC[C@H]3O[C@@H](n4cnc5c(N)ncnc54)[C@H](OP(=O)(O)O)[C@@H]3O)[C@@H](O)[C@H]2O)c1` [NADP^+] registered a Ki in series [1] (competitive with NADPH) of 143 ± 8 µM.

`O=P(O)(O)OP(=O)(O)O` [PPi]: the affinity in [1] (mixed inhibition with ATP), expressed as Ki, was 220 ± 50 µM.

As usually defined, the Km is the concentration of substrate that gives half-maximal velocity. In general, kcat refers to the number of substrate molecules converted per active site and unit of time at saturation. As a reminder, the kcat/Km is the turnover number divided by the Michaelis constant. niCAR (Nocardia iowensis): the Km in series [2] turned out to be 250 ± 10 µM; in series [3], 50 ± 20 µM; in [4] it was 20 ± 10 µM. Further, the kcat in series [2] amounted to 0.817 s⁻¹; in series [3], 0.128 ± 0.0117 s⁻¹; in series [4], 2.62 ± 0.15 s⁻¹. The kcat/Km in series [2] was determined as 3330 M⁻¹ s⁻¹; in series [3], 2830 ± 1170 M⁻¹ s⁻¹; in series [4], 117000 ± 33300 M⁻¹ s⁻¹.

As to noCAR (Nocardia otitidiscaviarum), in series [5], the Km came to 40 ± 10 µM, the kcat came out at 1.65 ± 0.05 s⁻¹ and the kcat/Km came to 41700 ± 5000 M⁻¹ s⁻¹. Besides, in [6], the Km came out at 20 ± 10 µM, the kcat stood at 0.183 ± 0.0167 s⁻¹ and the kcat/Km came to 8330 ± 5000 M⁻¹ s⁻¹.

With “tpCAR (Tsukamurella paurometabola DSM 20162)”, the Km in series [7] stood at 90 ± 20 µM; in series [8] it was 40 ± 10 µM; in [9] it was 120 ± 30 µM; in series [10] it was 200 ± 10 µM. Also, the kcat in series [7] stood at 0.1 ± 0.0667 s⁻¹; in [8], 2.62 ± 0.0833 s⁻¹; in series [9], 0.25 ± 0.0167 s⁻¹; in series [10] it was 3.65 ± 0.05 s⁻¹. For the same molecule, the kcat/Km stood at 1170 ± 667 M⁻¹ s⁻¹ in [7], 60000 ± 6670 M⁻¹ s⁻¹ in series [8], 2000 ± 500 M⁻¹ s⁻¹ in series [9] and 19000 ± 833 M⁻¹ s⁻¹ in series [10].

B1: msCAR (Mycolicibacterium smegmatis MC2 155) (protein)
chain: MTSDVHDATDGVTETALDDEQSTRRIAELYATDPEFAAAAPLPAVVDAAHKPGLRLAEILQTLFTGYGDRPALGYRARELATDEGGRTVTRLLPRFDTLTYAQVWSRVQAVAAALRHNFAQPIYPGDAVATIGFASPDYLTLDLVCAYLGLVSVPLQHNAPVSRLAPILAEVEPRILTVSAEYLDLAVESVRDVNSVSQLVVFDHHPEVDDHRDALARAREQLAGKGIAVTTLDAIADEGAGLPAEPIYTADHDQRLAMILYTSGSTGAPKGAMYTEAMVARLWTMSFITGDPTPVINVNFMPLNHLGGRIPISTAVQNGGTSYFVPESDMSTLFEDLALVRPTELGLVPRVADMLYQHHLATVDRLVTQGADELTAEKQAGAELREQVLGGRVITGFVSTAPLAAEMRAFLDITLGAHIVDGYGLTETGAVTRDGVIVRPPVIDYKLIDVPELGYFSTDKPYPRGELLVRSQTLTPGYYKRPEVTASVFDRDGYYHTGDVMAETAPDHLVYVDRRNNVLKLAQGEFVAVANLEAVFSGAALVRQIFVYGNSERSFLLAVVVPTPEALEQYDPAALKAALADSLQRTARDAELQSYEVPADFIVETEPFSAANGLLSGVGKLLRPNLKDRYGQRLEQMYADIAATQANQLRELRRAAATQPVIDTLTQAAATILGTGSEVASDAHFTDLGGDSLSALTLSNLLSDFFGFEVPVGTIVNPATNLAQLAQHIEAQRTAGDRRPSFTTVHGADATEIRASELTLDKFIDAETLRAAPGLPKVTTEPRTVLLSGANGWLGRFLTLQWLERLAPVGGTLITIVRGRDDAAARARLTQAYDTDPELSRRFAELADRHLRVVAGDIGDPNLGLTPEIWHRLAAEVDLVVHPAALVNHVLPYRQLFGPNVVGTAEVIKLALTERIKPVTYLSTVSVAMGIPDFEEDGDIRTVSPVRPLDGGYANGYGNSKWAGEVLLREAHDLCGLPVATFRSDMILAHPRYRGQVNVPDMFTRLLLSLLITGVAPRSFYIGDGERPRAHYPGLTVDFVAEAVTTLGAQQREGYVSYDVMNPHDDGISLDVFVDWLIRAGHPIDRVDDYDDWVRRFETALTALPEKRRAQTVLPLLHAFRAPQAPLRGAPEPTEVFHAAVRTAKVGPGDIPHLDEALIDKYIRDLREFGLI
notes: expressed in E. coli BL21(DE3) with B. subtilis Sfp (phosphopantetheinylated); one of three M. smegmatis paralogues, distinct from the CAR of Moura et al
For B1, the Km in series [11] was 100 ± 10 µM; in series [12] it was 160 ± 20 µM; in [13], 75 ± 4 µM; in series [14] it was 50 ± 10 µM. The kcat in [11] turned out to be 4.93 s⁻¹; in series [12], 2.57 s⁻¹; in [13], 1.97 s⁻¹; in series [14], 2.18 ± 0.0833 s⁻¹. The kcat/Km in series [11] worked out at 50000 M⁻¹ s⁻¹; in [12], 15000 M⁻¹ s⁻¹; in [13], 26700 M⁻¹ s⁻¹; in series [14], 45000 ± 6670 M⁻¹ s⁻¹.
